We go through four substances from PMC11222466.

Assay [1] addresses PHB-CC_(ΔEA4), PHB-CC variant with A286E287A288 deleted (Staphylococcus aureus). As to the kind of experiment: SEC; purified FloA variants at ~60 μM, Superdex 200 Increase 10/300 GL, 300 mM NaCl, 50 mM Tris-HCl pH 8.0, 10% glycerol, 0.02% DDM. On the technique in general: SEC sorts molecules by how far they enter the pores of the column.
Assay [2] concerns the target Purified OBL domain of NfeD (Staphylococcus aureus). The assay can be described thus: SEC; purified NfeD variants at ~60 μM, Superdex 75 Increase 10/300 GL, 300 mM NaCl, 50 mM Tris-HCl pH 8.0, 10% glycerol, 0.02% DDM.
Assay [3] concerns the target Purified PHB domain of FloA (Staphylococcus aureus). The assay can be described thus: SEC; purified FloA variants at ~60 μM, Superdex 200 Increase 10/300 GL, 300 mM NaCl, 50 mM Tris-HCl pH 8.0, 10% glycerol, 0.02% DDM.
The target in assay [4] is Purified native NfeD (Staphylococcus aureus). As to the kind of experiment: SEC; purified NfeD variants at ~60 μM, Superdex 75 Increase 10/300 GL, 300 mM NaCl, 50 mM Tris-HCl pH 8.0, 10% glycerol, 0.02% DDM.

“PHB-CC_(ΔEA4), PHB-CC variant with A286E287A288 deleted (domain or fragment)” displayed a stoichiometry N in assay [1] of 2.
“Purified OBL domain of NfeD (domain or fragment)” returned a stoichiometry N in assay [2] of 2.
In turn, “Purified PHB domain of FloA (domain or fragment)” registered a stoichiometry N in assay [3] of 2.
The substance Purified native NfeD (natural protein) had a stoichiometry N in assay [4] of 2.

For orientation: stoichiometry N means a count of units in the complex or per binding partner.
